Results: article PMC3912200, “Structural and Functional Characterization of Cargo-Binding Sites on the μ4-Subunit of Adaptor Protein Complex 4” (PLoS ONE, 2014)
Substitutions are numbered along the chain they refer to. Names may count otherwise.

Assays:
[1] = target: T1, recombinant C-terminal domain of human μ4-D190S (human, UniProt O00189 160-453, D190S); test: ITC; 28°C, 50 mM Tris-HCl pH 7.4, 150 mM NaCl; chamber 250–500 µM μ4 construct, peptide 2.5–5.0 mM in 16 injections; one-site model; conditions: both partners purified
T1 construct: also called D190S mutant; source: E. coli B834(DE3)pLysS, purified (glutathione-Sepharose 4B, TEV cleavage, Ni-NTA, Superdex 200); not shown: GST, N-terminal, cleaved
T1 sequence (looked up): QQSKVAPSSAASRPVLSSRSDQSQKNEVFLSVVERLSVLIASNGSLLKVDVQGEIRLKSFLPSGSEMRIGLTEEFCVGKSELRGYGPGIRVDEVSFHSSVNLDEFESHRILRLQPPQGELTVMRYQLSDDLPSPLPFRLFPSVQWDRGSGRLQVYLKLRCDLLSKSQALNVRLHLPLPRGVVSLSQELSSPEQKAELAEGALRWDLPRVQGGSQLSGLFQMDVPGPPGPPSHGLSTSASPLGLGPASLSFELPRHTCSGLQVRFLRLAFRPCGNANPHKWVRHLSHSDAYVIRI

[2] = test system: cytosolic tail of APP; test: Yeast two-hybrid (Y2H) analysis of μ4 with the APP tail; format: binding; conditions: mutations at μ2-binding site; growth on -His plates, 30°C
Excerpt: The cloning of the tail of APP (residues 649–695), full-length human μ4, and all the other yeast two-hybrid (Y2H) constructs, and the cloning of the C-terminal domain of μ4 for expression in E. coli was described previously. To generate a construct for mammalian expression, full-length human μ4 was obtained by PCR amplification and cloned into the EcoRI and SalI sites of pEGFP-N1 (BD BiosciencesClontech, Mountain View, CA) including a stop-codon before the GFP coding sequence. The cloning of APP-GFP carrying the double mutation F615P/D664A was described previously. Single amino acid substitutions were introduced using the QuikChange mutagenesis kit (Stratagene, La Jolla, CA). Y2H assays were performed as previously described. A set of pCI-neo (Promega) constructs encoding hemagglutinin (HA)-epitope tagged wild-type or mutants of human μ4 was a generous gift of J. Bonifacino and R. Mattera (Cell Biology and Metabolism Program, NICHD, NIH). The nucleotide sequences of all recombinant constructs were confirmed by dideoxy sequencing.
Figure 1 Yeast two-hybrid analysis of the interaction of μ4 with the cytosolic tail of APP. (A) Superposition of the surface and ribbon representations of human wild-type μ4 C-terminal domain (pdb entry 3L81). The insets show an enlargement of the μ4-binding site and the putative μ2-binding site with residues chosen for the yeast two-hybrid (Y2H) analysis. The APP peptide (TYKFFEQ; stick model) bound to the μ4-binding site is in yellow, and the EGFR peptide (FYRALM; stick model; pdb entry 1BW8) superposed to the putative μ2-binding site is in magenta. (B) Sequence alignment of the C-terminal domain of the μ subunits of known crystal structure depicting critical residues at the corresponding μ2- and μ4-binding sites. Disordered loops are in yellow letters, and arrows and cylinders represent β-strands and α-helices, respectively. M.m., Mus musculus; R.n., Rattus norvegicus; H.s., Homo sapiens. (C) and (D) Yeast were co-transformed with plasmids encoding Gal4bd fused to the cytosolic tail of the amyloid precursor protein (APP) indicated on the left, and Gal4ad fused to wild-type or mutant μ4 constructs indicated on top of each panel. (C) Y2H analysis of μ4 with mutations on the YKFFE binding site (μ4-binding site). (D) Y2H analysis of μ4 with mutations on a putative YXXØ binding site (μ2-binding site). Mouse p53 fused to Gal4bd and SV40 large T antigen (T Ag) fused to Gal4ad were used as controls. Co-transformed cells were spotted onto His-deficient (-His) or His-containing (+His) plates and incubated at 30°C. Growth is indicative of interactions. Some mutations on either of the two sites affect the interaction of μ4 with the cytosolic tail of APP.

[3] = test system: canonical YXXØ signals; conditions: previous reports; ref [31]; cited from earlier work
Excerpt: This tyrosine-based signal is related to the YXXØ motif, which is the signal contained in the cytosolic tail of transmembrane proteins that binds to a different site on the μ2 subunit of AP-2 [28], or on the μ3A subunit of AP-3 [30]. In this study, we wanted to determine whether this putative second binding site on μ4, referred here as the μ2-binding site (Figure 1, A and B), played any role in the binding to the YKFFE signal of APP ...

[4] = test system: APP-GFP; test: Distribution of APP-GFP in H4 neuroglioma cells; format: cell-based, human; conditions: untagged; 36 h; APP-GFP F615P/D664A; TGN46, EEA1 staining
Description: H4 human neuroglioma or MDA-MB-231 human mammary gland epithelial cells obtained from the American Type Culture Collection (Manassas, VA) were maintained in DMEM (H4) or DMEM/F12 (MDA-MB-231) supplemented with 10% (v/v) fetal bovine serum (FBS), 100 U/ml penicillin and 100 µg/ml streptomycin (Life Technologies). Transfections were carried out using Lipofectamine 2000 (Life Technologies) for 1 h at 37°C in the absence of FBS, and cells were analyzed 16, 24 or up to 36-h after transfection, for which we observed no notorious signs of loss in cell viability. SDS-PAGE, immunoblotting, and immunoprecipitation were performed as described. […]
Indirect immunofluorescence staining of fixed, permeabilized cells was performed as previously described, using sheep polyclonal antibody anti-TGN46 (Serotec), and mouse monoclonal antibody anti-EEA1 (BD Biosciences) or rabbit polyclonal antibody anti-EEA1 (Santa Cruz Biotechnology), followed by the secondary antibodies Alexa-647–conjugated donkey anti-mouse IgG, Alexa-594–conjugated donkey anti-rabbit IgG, or Alexa-594– or -647–conjugated donkey anti-sheep IgG (Life Technologies). […] Quantitative analysis of colocalization was performed as we previously described, with minor modifications. […]

B1: APP peptide ENPTYKFFEQ (peptide)
peptide: ENPTYKFFEQ
notes: amyloid precursor protein (APP), stretch of the cytosolic tail with the YKFFE signal (Y687 to Q692 printed); numbers count on: APP695; also called APP sorting signal; source: synthetic peptide (New England Peptide)
binding result [1]: binds

B2: D190A: μ4 mutant, μ2-binding site, Y2H construct (protein)
chain: MISQFFILSSKGDPLIYKDFRGDSGGRDVAELFYRKLTGLPGDESPVVMHHHGRHFIHIRHSGLYLVVTTSENVSPFSLLELLSRLATLLGDYCGSLGEGTISRNVALVYELLDEVLDYGYVQTTSTEMLRNFIQTEAVVSKPFSLFDLSSVGLFGAETQQSKVAPSSAASRPVLSSRSDQSQKNEVFLAVVERLSVLIASNGSLLKVDVQGEIRLKSFLPSGSEMRIGLTEEFCVGKSELRGYGPGIRVDEVSFHSSVNLDEFESHRILRLQPPQGELTVMRYQLSDDLPSPLPFRLFPSVQWDRGSGRLQVYLKLRCDLLSKSQALNVRLHLPLPRGVVSLSQELSSPEQKAELAEGALRWDLPRVQGGSQLSGLFQMDVPGPPGPPSHGLSTSASPLGLGPASLSFELPRHTCSGLQVRFLRLAFRPCGNANPHKWVRHLSHSDAYVIRI
modifications: left off: Gal4 activation domain, end not stated, kept
effect of mutation on interaction of the APP tail with μ4 (Y2H) [2]: abrogated
interaction of μ4 mutant with canonical YXXØ signals [3]: loss of these interactions

B3: µ4-F255A: untagged full-length μ4-F255A, overexpressed (protein, UniProt O00189 1-453, looked up, variant F255A)
chain: B2 chain with A190D, F255A
modifications: full-length
notes: untagged full-length μ4-F255A, overexpressed
APP redistribution (figure title) [4]: APP redistributes from endosomes to the TGN
